The values that follow come from paper PMC9750918, “Diprenylated cyclodipeptide production by changing the prenylation sequence of the nature’s synthetic machinery” (Applied Microbiology and Biotechnology, 2022).

The target of data set [1] is T1, 6-DMATSSa (Streptomyces ambofaciens, UniProt A3KIV6).
T1 construct: gene SAM23877_0730; 6-DMATSSa-His6 (C-terminal tag kept), plasmid pJW12, expressed in E. coli, Ni-NTA purified
T1 sequence (A3KIV6 1-375): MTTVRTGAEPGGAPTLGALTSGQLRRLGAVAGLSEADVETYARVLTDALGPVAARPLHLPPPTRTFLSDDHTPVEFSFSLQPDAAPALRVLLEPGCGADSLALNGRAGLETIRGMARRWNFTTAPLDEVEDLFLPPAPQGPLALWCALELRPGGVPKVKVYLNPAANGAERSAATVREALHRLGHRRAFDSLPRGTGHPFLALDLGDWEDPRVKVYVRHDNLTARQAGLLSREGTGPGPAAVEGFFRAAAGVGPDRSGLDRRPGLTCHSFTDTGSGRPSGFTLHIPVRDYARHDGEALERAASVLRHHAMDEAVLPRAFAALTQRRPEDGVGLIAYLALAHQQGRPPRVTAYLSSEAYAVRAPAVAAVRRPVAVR
As to the kind of experiment: LCMS prenylation assay, conversion yield. Conditions: 1 mM substrate; 1 mM DMAPP; 5 mM CaCl2; 4 µg protein in 50 µL; pH 7.5; 37 °C; 16 h; C6-prenylation. In kind it is biochemical.

For data set [2], the target named is T2, 7-DMATS (Aspergillus fumigatus, UniProt Q4WYG3).
T2 construct: gene etpPT; 7-DMATS-His6 (C-terminal tag kept), plasmid pLW40, expressed in E. coli, Ni-NTA purified
T2 sequence (Q4WYG3 1-472): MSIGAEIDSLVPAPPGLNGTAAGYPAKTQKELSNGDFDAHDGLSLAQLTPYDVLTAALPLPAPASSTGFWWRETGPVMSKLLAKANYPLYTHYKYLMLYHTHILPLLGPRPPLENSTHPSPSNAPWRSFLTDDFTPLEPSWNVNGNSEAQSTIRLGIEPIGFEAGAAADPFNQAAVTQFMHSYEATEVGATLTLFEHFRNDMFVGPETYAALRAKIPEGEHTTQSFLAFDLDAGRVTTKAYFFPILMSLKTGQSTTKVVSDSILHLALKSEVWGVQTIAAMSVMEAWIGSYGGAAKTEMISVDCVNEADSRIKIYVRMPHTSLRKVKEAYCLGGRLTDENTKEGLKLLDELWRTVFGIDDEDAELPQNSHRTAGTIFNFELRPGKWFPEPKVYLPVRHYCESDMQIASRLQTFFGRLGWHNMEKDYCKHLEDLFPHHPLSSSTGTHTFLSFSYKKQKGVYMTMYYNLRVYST
Briefly: LCMS prenylation assay, conversion yield. The class given is biochemical. Conditions: 1 mM substrate; 1 mM DMAPP; 5 mM CaCl2; 4 µg protein in 50 µL; pH 7.5; 37 °C; 16 h; C6- and C7-prenylation.

Substrate in data set [3]: CC(C)=CCc1ccc2[nH]cc(C[C@@H]3NC(=O)[C@@H]4CCCN4C3=O)c2c1
As to the kind of experiment: HPLC prenylation assay, Michaelis-Menten fit. In kind it is biochemical, Aspergillus ruber. Conditions: 1 mM DMAPP, pH 7.5, 37 °C, 35 min. The text has this: (§1) HPLC prenylation assay, Michaelis-Menten fit on EchPT1

Substrate in data set [4]: CC(C)=CCOP(=O)(O)OP(=O)(O)O
As to the kind of experiment: HPLC prenylation assay, Michaelis-Menten fit. In kind it is biochemical, Aspergillus ruber. Conditions: 1 mM C4-prenylated cyclo-L-Trp-L-Pro (3), 5 mM CaCl2, pH 7.5, 37 °C, 30 min.
Text: as §1

Substrate in data set [5]: CC(C)=CCc1cccc2[nH]cc(C[C@@H]3NC(=O)[C@@H]4CCCN4C3=O)c12
As to the kind of experiment: HPLC prenylation assay, Michaelis-Menten fit. In kind it is biochemical, Aspergillus ruber. Conditions: 1 mM DMAPP, pH 7.5, 37 °C, 30 min.
Text: as §1

Substrate in data set [6]: CC(C)=CCc1ccc2c(C[C@@H]3NC(=O)[C@@H]4CCCN4C3=O)c[nH]c2c1
Briefly: HPLC prenylation assay, Michaelis-Menten fit. The class given is biochemical, Aspergillus ruber. Conditions: 1 mM DMAPP, pH 7.5, 37 °C, 30 min, N1-prenylation.
Text: as §1

Regarding `O=C1N[C@@H](Cc2c[nH]c3ccccc23)C(=O)N2CCC[C@@H]12` [compound 1, cyclo-L-Trp-L-Pro], the conversion yield is 29.9 ± 0.6% in data set [1] and 11.6 ± 1.4% in data set [2].

B1: EchPT1 (Aspergillus ruber) (protein)
chain: MPSEVLTSYYDYPTHDQEAWWRDTGPLFGRFLKGAGYDVHTQYQYLVFFIKNILPSLGPYPARWRSTITPTGLPIEYSLNFQLNSRPLLRIGFEPLSRFSGTPQDPYNKIAAADLLNQLSKLQLHEFDTQLFNHFTNEFELSKSESESLQKQGGINGKSTVRSQTAFGFDLKGGRVAVKGYAFAGLKNRATGTPVGQLISNSIRNLEPQMHCWDSFSILNSYMEESDGWNEYSFVSWDCVDIERSRLKLYGVHNAVTWDKVKEMWTLGGRIENNATIKTGLELLQHMWSLLQINEGDRDYKGGFAADNGGKTLPIIWNYELNKGSPHPAPKFYFPVHGENDLQVSKSISEFFTHLGWQDHARQYPHLLRQIYPNQNISQTERLQAWISFAYNERTGPYLSVYYYSAERPPWGSDQVK
notes: His6-EchPT1 (N-terminal tag kept), plasmid pVW90, expressed in E. coli, Ni-NTA purified
In general, Km refers to the concentration of substrate that gives half-maximal velocity. As a reminder, the kcat is the maximal rate divided by the concentration of active sites. Usually kcat/Km stands for the second-order rate constant that governs catalysis at low substrate concentration. As for B1, the Km worked out at 80 ± 20 µM in data set [3], 100 ± 10 µM in data set [4], 60 ± 10 µM in data set [5] and 50 ± 7 µM in data set [6]. For the same molecule, the kcat in data set [3] was determined as 0.03 ± 0.004 s⁻¹; in data set [4], 0.25 ± 0.02 s⁻¹; in data set [5], 0.21 ± 0.02 s⁻¹; in data set [6], 0.007 ± 0.0004 s⁻¹. Besides, the kcat/Km came out at 375 M⁻¹ s⁻¹ in data set [3], 2500 M⁻¹ s⁻¹ in data set [4], 3500 M⁻¹ s⁻¹ in data set [5] and 140 M⁻¹ s⁻¹ in data set [6].
